Measured values reported in patent publication US20140087995A1 (published 2014).
Numbered stars: 1 amine (or outer) side, 2 acyl side, 3 side chain; on linkers, the order of the positions; unused ones are H or OH. Bridge positions count the residues as written; N and C are the ends. Side chains are listed from the residue outwards. Ends that are not written are not given here. * marks the point of attachment. C20 diacid = O=C(O)CCCCCCCCCCCCCCCCCCC(=O)*; γGlu = O=C(O)[C@H](CCC(=O)[*:2])N[*:1]; AEEA = NCCOCCOCC(=O)O

T1: human calcitonin receptor (human, UniProt P30988 25-474)
T1 construct: whole, on cells; Used as cell membranes prepared from the transfected BHK cells (Assay VII), not as intact cells; also called hCTR; hCT
T1 sequence (looked up): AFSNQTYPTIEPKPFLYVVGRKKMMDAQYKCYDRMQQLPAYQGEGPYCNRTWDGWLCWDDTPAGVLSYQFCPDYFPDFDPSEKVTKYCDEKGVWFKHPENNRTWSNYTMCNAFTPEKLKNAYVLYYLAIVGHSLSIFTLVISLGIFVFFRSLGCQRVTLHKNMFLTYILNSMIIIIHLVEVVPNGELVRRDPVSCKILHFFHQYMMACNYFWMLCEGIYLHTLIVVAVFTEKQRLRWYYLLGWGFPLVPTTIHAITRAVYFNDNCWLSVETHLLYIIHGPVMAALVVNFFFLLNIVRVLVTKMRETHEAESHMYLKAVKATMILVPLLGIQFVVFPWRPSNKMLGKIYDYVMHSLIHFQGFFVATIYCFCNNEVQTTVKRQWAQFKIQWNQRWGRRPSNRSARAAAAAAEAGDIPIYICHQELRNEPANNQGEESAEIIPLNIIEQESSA

T2: human amylin receptor (human calcitonin receptor co-expressed with RAMP-3; amylin 3(a) receptor) (human, UniProt P30988 25-474; O60896 24-148, limits assumed)
T2 construct: whole, on cells; Used as cell membranes prepared from Amylin 3(a)/CRE-luc BHK cells (Assay V), not as intact cells; also called hAmylin-R; hAmylinR
T2 sequence (looked up) 1: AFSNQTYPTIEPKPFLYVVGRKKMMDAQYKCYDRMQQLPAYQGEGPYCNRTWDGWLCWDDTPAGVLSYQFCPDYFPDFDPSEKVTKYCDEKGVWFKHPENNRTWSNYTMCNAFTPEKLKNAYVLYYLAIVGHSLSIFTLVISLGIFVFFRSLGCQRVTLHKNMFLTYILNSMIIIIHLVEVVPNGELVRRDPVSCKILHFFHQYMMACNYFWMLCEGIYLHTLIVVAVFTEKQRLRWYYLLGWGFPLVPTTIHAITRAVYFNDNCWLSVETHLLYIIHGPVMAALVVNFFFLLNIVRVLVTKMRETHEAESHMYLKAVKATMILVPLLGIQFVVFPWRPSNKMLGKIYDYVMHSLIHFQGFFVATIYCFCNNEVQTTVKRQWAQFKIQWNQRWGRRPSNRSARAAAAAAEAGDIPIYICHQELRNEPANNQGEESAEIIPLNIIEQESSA
T2 sequence (looked up) 2: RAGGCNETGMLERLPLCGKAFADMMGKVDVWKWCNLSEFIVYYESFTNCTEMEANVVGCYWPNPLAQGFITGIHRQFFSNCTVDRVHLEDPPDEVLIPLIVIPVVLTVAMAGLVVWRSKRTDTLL

T3: human amylin 3(a) receptor (human calcitonin receptor co-expressed with RAMP-3) (human, UniProt P30988 25-474; O60896 24-148, limits assumed)
T3 sequence (looked up) 1: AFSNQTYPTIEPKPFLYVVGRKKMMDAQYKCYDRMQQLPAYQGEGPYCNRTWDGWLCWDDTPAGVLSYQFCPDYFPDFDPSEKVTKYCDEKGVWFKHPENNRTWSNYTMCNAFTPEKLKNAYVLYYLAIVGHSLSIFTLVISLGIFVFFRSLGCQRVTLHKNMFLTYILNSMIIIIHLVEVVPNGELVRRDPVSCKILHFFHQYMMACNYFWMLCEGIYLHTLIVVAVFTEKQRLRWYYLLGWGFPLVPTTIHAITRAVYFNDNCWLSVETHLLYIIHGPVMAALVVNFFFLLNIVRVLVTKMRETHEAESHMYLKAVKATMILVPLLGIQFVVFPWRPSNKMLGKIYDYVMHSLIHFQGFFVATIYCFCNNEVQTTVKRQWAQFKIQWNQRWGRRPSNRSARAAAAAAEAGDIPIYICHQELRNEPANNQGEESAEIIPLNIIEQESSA
T3 sequence (looked up) 2: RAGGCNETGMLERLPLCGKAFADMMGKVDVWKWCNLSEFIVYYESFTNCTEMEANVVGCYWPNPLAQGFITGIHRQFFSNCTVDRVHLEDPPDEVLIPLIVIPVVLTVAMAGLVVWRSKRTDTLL


Target: T1, human calcitonin receptor
Assay: SPA competition against 125I-calcitonin, membranes with human calcitonin receptor (Assay VII)
Procedure, shortened: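 BHK hCTR membranes 35 ng/μL + SPA beads 0.05 mg/well; buffer 50 mM Hepes pH 7.4, 1 mM CaCl2, 5 mM MgCl₂, 0.1% OA, 0.02% Tween20. 120 min, 25° C., shaking. Scintillation count; IC50 by one-site binding competition.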

| IC50 [nM] | Binder |
| --- | --- |
| 56 | K([AEEA-γGlu-C20 diacid])CNTATCATQRLARFLRHSSPNFGAIPSSTPVGSNTY-NH2 (disulfide 2-7; N-terminus assumed; SMILES CC[C@H](C)[C@H](NC(=O)[C@H](C)NC(=O)CNC(=O)[C@H](Cc1ccccc1)NC(=O)[C@H](CC(N)=O)NC(=O)[C@@H]1CCCN1C(=O)[C@H](CO)NC(=O)[C@H](CO)NC(=O)[C@H](Cc1c[nH]cn1)NC(=O)[C@H](CCCNC(=N)N)NC(=O)[C@H](CC(C)C)NC(=O)[C@H](Cc1ccccc1)NC(=O)[C@H](CCCNC(=N)N)NC(=O)[C@H](C)NC(=O)[C@H](CC(C)C)NC(=O)[C@H](CCCNC(=N)N)NC(=O)[C@H](CCC(N)=O)NC(=O)[C@@H](NC(=O)[C@H](C)NC(=O)[C@@H]1CSSC[C@H](NC(=O)[C@@H](N)CCCCNC(=O)COCCOCCNC(=O)CC[C@H](NC(=O)CCCCCCCCCCCCCCCCCCC(=O)O)C(=O)O)C(=O)N[C@@H](CC(N)=O)C(=O)N[C@@H]([C@@H](C)O)C(=O)N[C@@H](C)C(=O)N[C@@H]([C@@H](C)O)C(=O)N1)[C@@H](C)O)C(=O)N1CCC[C@H]1C(=O)N[C@@H](CO)C(=O)N[C@@H](CO)C(=O)N[C@H](C(=O)N1CCC[C@H]1C(=O)N[C@H](C(=O)NCC(=O)N[C@@H](CO)C(=O)N[C@@H](CC(N)=O)C(=O)N[C@H](C(=O)N[C@@H](Cc1ccc(O)cc1)C(N)=O)[C@@H](C)O)C(C)C)[C@@H](C)O, also called compound 64) |
| 5.38 | K([AEEA-γGlu-C20 diacid])CNTATCATQRLANFLRHSSPNFGAIPPSTPVGSNTY-NH2 (disulfide 2-7, also called compound 53) |

Target: T2, human amylin receptor (human calcitonin …)
Assay: ratio of hCTR binding IC50 to hAmylin-R binding IC50 (reference: human calcitonin receptor)
Description: The resulting pellet was resuspended, homogenized and centrifuged (20.000 rpm, 15 min) in a buffer containing 20 mM Na-HEPES and 0.1 mM EDTA (pH 7.4, buffer 2). The resulting pellet was resuspended in buffer 2 and protein concentration was measured (BCA protein Assay, Pierce). The homogenate was kept cold during the whole procedure. The membranes were kept at −80° C. until use. The assay was performed in a 384 well Optiplate (PerkinElmer) in a total volume of 40 ul. Membranes were mixed with SPA beads. Final concentration of membranes 35 ng/μL final and SPA beads was 0.05 mg/well. Test-compounds were dissolved in DMSO and further diluted in assay buffer (50 mM Hepes, pH 7.4, 1 mM CaCl2, 5 mM MgCl₂, 0.1% OA and 0.02% Tween20). […] The final mixture was incubated with shaking at 400 rpm for 120 min at 25° C. prior to centrifugation (1500 rpm, 10 min). Samples were analyzed on TopCounter™ (Packard). The IC₅₀ was calculated using (one site binding competition analysis) GraphPad Prism5 as a measure of receptor affinity.
Membranes were prepared in the following way; the cells were rinsed with PBS and incubated with Versene for approximately 5 min before harvesting. The cells were flushed with PBS and the cell-suspension was centrifuged for 5 min at 1000 rpm. Cells were homogenized (Ultrathurrax) in a buffer containing 20 mM Na-HEPES and 10 mM EDTA (pH 7.4) and centrifuged at 20.000 rpm for 15 min. The resulting pellet was resuspended, homogenized and centrifuged (20.000 rpm, 15 min) in a buffer containing 20 mM Na-HEPES and 0.1 mM EDTA (pH 7.4, buffer 2). The resulting pellet was resuspended in buffer 2 and protein concentration was measured (BCA protein Assay, Pierce). The homogenate was kept cold during the whole procedure. The membranes were kept at −80° C. until use. Assay was performed in a 384 well Optiplate (PerkinElmer) in a total volume of 40 ul. Membranes were mixed with SPA beads.

| Ratio hCT/hAmylin binding | Binder |
| --- | --- |
| 126 | K([AEEA-γGlu-C20 diacid])CNTATCATQRLARFLRHSSPNFGAIPSSTPVGSNTY-NH2 (disulfide 2-7; N-terminus assumed; SMILES CC[C@H](C)[C@H](NC(=O)[C@H](C)NC(=O)CNC(=O)[C@H](Cc1ccccc1)NC(=O)[C@H](CC(N)=O)NC(=O)[C@@H]1CCCN1C(=O)[C@H](CO)NC(=O)[C@H](CO)NC(=O)[C@H](Cc1c[nH]cn1)NC(=O)[C@H](CCCNC(=N)N)NC(=O)[C@H](CC(C)C)NC(=O)[C@H](Cc1ccccc1)NC(=O)[C@H](CCCNC(=N)N)NC(=O)[C@H](C)NC(=O)[C@H](CC(C)C)NC(=O)[C@H](CCCNC(=N)N)NC(=O)[C@H](CCC(N)=O)NC(=O)[C@@H](NC(=O)[C@H](C)NC(=O)[C@@H]1CSSC[C@H](NC(=O)[C@@H](N)CCCCNC(=O)COCCOCCNC(=O)CC[C@H](NC(=O)CCCCCCCCCCCCCCCCCCC(=O)O)C(=O)O)C(=O)N[C@@H](CC(N)=O)C(=O)N[C@@H]([C@@H](C)O)C(=O)N[C@@H](C)C(=O)N[C@@H]([C@@H](C)O)C(=O)N1)[C@@H](C)O)C(=O)N1CCC[C@H]1C(=O)N[C@@H](CO)C(=O)N[C@@H](CO)C(=O)N[C@H](C(=O)N1CCC[C@H]1C(=O)N[C@H](C(=O)NCC(=O)N[C@@H](CO)C(=O)N[C@@H](CC(N)=O)C(=O)N[C@H](C(=O)N[C@@H](Cc1ccc(O)cc1)C(N)=O)[C@@H](C)O)C(C)C)[C@@H](C)O, also called compound 64) |
| 104 | K([AEEA-γGlu-C20 diacid])CNTATCATQRLANFLRHSSPNFGAIPPSTPVGSNTY-NH2 (disulfide 2-7, also called compound 53) |

Target: T3, human amylin 3(a) receptor (human …)
Assay: cell-based or functional assay

| Binder | Ratio hCT/hAmylin funct. |
| --- | --- |
| {C20 diacid-γGlu-AEEA-AEEA}-KCNTATCATQRLAEFLRHSSPNFGAIPSSTNVGSNTP-NH2 (disulfide 2-7 (inferred), also called compound 20) | 3.6 |
| {C20 diacid-γGlu}-KCNTATCATQRLAEFLRHSSPNFGAIPSSTNVGSNTP-NH2 (disulfide 2-7 (inferred), also called compound 8) | 1.1 |
| {C20 diacid-γGlu}-KCNTATCATQRLADFLRHSSPNFGAIPSSTNVGSNTP-NH2 (disulfide 2-7; SMILES CC[C@H](C)[C@H](NC(=O)[C@H](C)NC(=O)CNC(=O)[C@H](Cc1ccccc1)NC(=O)[C@H](CC(N)=O)NC(=O)[C@@H]1CCCN1C(=O)[C@H](CO)NC(=O)[C@H](CO)NC(=O)[C@H](Cc1c[nH]cn1)NC(=O)[C@H](CCCNC(=N)N)NC(=O)[C@H](CC(C)C)NC(=O)[C@H](Cc1ccccc1)NC(=O)[C@H](CC(=O)O)NC(=O)[C@H](C)NC(=O)[C@H](CC(C)C)NC(=O)[C@H](CCCNC(=N)N)NC(=O)[C@H](CCC(N)=O)NC(=O)[C@@H](NC(=O)[C@H](C)NC(=O)[C@@H]1CSSC[C@H](NC(=O)[C@H](CCCCN)NC(=O)CC[C@H](NC(=O)CCCCCCCCCCCCCCCCCCC(=O)O)C(=O)O)C(=O)N[C@@H](CC(N)=O)C(=O)N[C@@H]([C@@H](C)O)C(=O)N[C@@H](C)C(=O)N[C@@H]([C@@H](C)O)C(=O)N1)[C@@H](C)O)C(=O)N1CCC[C@H]1C(=O)N[C@@H](CO)C(=O)N[C@@H](CO)C(=O)N[C@H](C(=O)N[C@@H](CC(N)=O)C(=O)N[C@H](C(=O)NCC(=O)N[C@@H](CO)C(=O)N[C@@H](CC(N)=O)C(=O)N[C@H](C(=O)N1CCC[C@H]1C(N)=O)[C@@H](C)O)C(C)C)[C@@H](C)O, also called compound 10) | 1 |
| {C20 diacid-γGlu}-KCNTATCATQRLAEFLRHSSPNFGAIPSSTNVGSDTP-NH2 (disulfide 2-7 (inferred), also called compound 11) | 0.9 |
| {C20 diacid-γGlu}-KCNTATCATQRLAEFLRHSSPNFGAIPSSTNVGSETY-NH2 (disulfide 2-7 (inferred), also called compound 22) | 3.8 |
| {C20 diacid-γGlu}-KCNTATCATQRLAEFLRHSSPNFGAPLSSTNVGSNTP-NH2 (disulfide 2-7 (inferred), also called compound 5) | 1 |
| K([γGlu-C20 diacid])CNTATCATQRLAEFLRHSSPNFGAIPSSTNVGPNTP-NH2 (disulfide 2-7 (inferred)) | 0.9 |
| {C20 diacid-γGlu}-GRCNTATCATQRLAHFLRHSSPNFGAIPSSTNVGPNTY-NH2 (disulfide 3-8 (inferred)) | 2.9 |
| {C20 diacid-γGlu}-GRCNTATCATQRLAAFLRHSSPNFGAIPSSTNVGPNTY-NH2 (disulfide 3-8 (inferred)) | 2.1 |

Continued, values first:

| Ratio hCT/hAmylin funct. | Binder |
| --- | --- |
| 0.8 | K([γGlu-C20 diacid])CNTATCATQRLAHFLRHSSPNFGAIPSSTNVGPNTP-NH2 (disulfide 2-7 (inferred)) |
| 2.2 | {C20 diacid-γGlu}-KCNTATCATQRLAEFLRHSSPNFGAILPSTNVGSETY-NH2 (disulfide 2-7 (inferred), also called compound 33) |
| 2.2 | K([γGlu-γGlu-C20 diacid])CNTATCATQRLAEFLRHSSPNFGAIPSSTNVGSNTP-NH2 (disulfide 2-7 (inferred), also called compound 13) |
| 1.6 | {C20 diacid-γGlu-γGlu}-KCNTATCATQRLAEFLRHSSPNFGAIPSSTNVGSNTP-NH2 (disulfide 2-7 (inferred), also called compound 14) |
| 1.8 | K([γGlu-C20 diacid])CNTATCATQRLAEFLRHSSPNFGAIPSSTNVGSNTP-NH2 (disulfide 2-7 (inferred), also called compound 12) |
